The source of these data is patent publication US20140017790A1, “CONTROL AGENT FOR CONTROLLING UNDIFFERENTIATED STATE AND USE THEREOF” (RIKEN, priority 2011, published 2014).

Assay [1] relates to ERK1/2. Nature of the assay: Western blotting, phosphorylation of ERK1/2 in mouse iPS cells. Type of assay: cell-based. To be noted: CCL2 overexpressed, relative to negative control. The method, then:
The mouse iPS cells transfected with the Ccl2 expression vector were cultured for 24 hours in the same manner as in Example 1. After the culture, the mouse iPS cells were washed with PBS, and then were suspended in 100 μl of a mammalian m-PER lysis buffer. The suspension was passed through a 26-gauge needle for 10 minutes to homogenize the cells. Then, the suspension was centrifuged at 13,000 rpm and 4° C. for 5 minutes, and the supernatant was collected. The protein concentration in the supernatant was measured using a Pierce (registered trademark) BCA Protein assay (trade name, Thermo Scientific). Next, the supernatant was subjected to Western blotting to detect a target protein. Specifically, first, the supernatant (total protein: 10 μg) was applied to a Novex Gel electrophoresis system with 4%-12% Bis-Tris gels, and was blotted on a nitrocellulose membrane. Then, the membrane was incubated with a primary antibody against the target protein. After washing the membrane, the membrane was incubated with a labeled secondary antibody labeled with horseradish peroxidase, and a color-developing reaction was caused using a coloring reagent (trade name: ECL plus, GE Healthcare). Then, luminescence on the membrane was detected using a Fuji LAS-3000 luminescent image analyzer. […]
(In general: A western blot detects proteins with antibodies after separation by electrophoresis.)

The subject of assay [2] is AKT. Nature of the assay: Western blotting, phosphorylation of AKT in human iPS cells. The assay is classed as cell-based. To be noted: feeder conditions, 6 days, versus negative control (bFGF). The method, then: With respect to the supernatant prepared in the above item (1), the target protein detection was carried out in the same manner as in Example 4. Furthermore, as a negative control, the target protein detection was carried out in the same manner, except that bFGF was added instead of the CCL2.
Then, the ratio of the phosphorylated AKT to the non-phosphorylated AKT (p-AKT/AKT) was determined. Assuming that the value of the p-AKT/AKT in the negative control was “1”, the relative value was calculated. Also, the ratio of the KLF4 gene expression to the GAPDH gene expression (KLF4/GAPDH) was determined. Assuming that KLF4/GAPDH in the negative control was “1”, the relative value was calculated.

B1: CCL2: mouse recombinant CCL2 (MCP-1, #479-JE-010, R&D Systems); in Examples 1, 3, 4(1), 5 mouse CCL2 (SEQ ID NO: 3) overexpressed from Ccl2 expression vector (protein, listed as Mus musculus)
chain: MQVPVMLLGLLFTVAGWSIHVLAQPDAVNAPLTCCYSFTSKMIPMSRLESYKRITSSRCPKEAVVFVTKLKREVCADPKKEWVQTYIKNLDRNQMRSEPTTLFKTASALRSSAPLNVKLTRKSEANASTTFSTTTSSTSVGVTSVTVN
In the case of B1, the “phosphorylation of ERK1/2 (pERK1/2/ERK1/2)” value in assay [1] is “not promoted”. Further, the “phosphorylation of AKT (pAKT/AKT)” value in assay [2] is given as “not promoted”.
